Data as given in paper PMC7756681, “Functional Hybrid Molecules for the Visualization of Cancer: PESIN‐Homodimers Combined with Multimodal Molecular Imaging Probes for Positron Emission Tomography and Optical Imaging: Suited for Tracking of GRPR‐Positive Malignant Tissue” (Chemistry (Weinheim an Der Bergstrasse, Germany), 2020).

Assays:
[1] = Photophysical properties (absorption and emission spectra in PBS); format: physicochemical; settings: for Log ϵ / Stokes shift / λ max: 1×10^−5 mol L^−1
From the text: After studying the chemical and biological properties of the MIUs and their corresponding multimodal imaging agents, the photophysical properties of the substances were finally under investigation. Here, we found no significant decrease or shift of the optical and fluorescent characteristics of the bioconjugates compared to the MIUs (Table 2).
Fig. S27 Normalized absorption and emission spectra of 7 (left) and 7a (right), recorded in PBS
at a concentration of c = 1.0 x 10-5 mol/L, emission wavelength stated in the graph (bottom, left
Fig. S28 Normalized absorption and emission spectra of 8 (left) and 8a (right), recorded in PBS
Fig. S29 Normalized absorption and emission spectra of 9 (left) and 9a (right), recorded in PBS […]
Fig. S30 Normalized absorption and emission spectra of 10 (left) and 10a (right), recorded in
PBS at a concentration of c = 1.0 x 10-5 mol/L, emission wavelength stated in the graph (bottom,
Fig. S31 Normalized absorption and emission spectra of 11 (left) and 11a (right), recorded in
Fig. S32 Normalized absorption and emission spectra of 12 (left) and 12a (right), recorded in […]

[2] = LogD determination of 68Ga-labeled MIUs and bioconjugates (water/1-octanol partition, γ-counter); settings: pH 7.4
Description: Following the synthesis of the MIUs 6 a–13 a and the corresponding bioconjugates 6–13, the radiolabeling efficiency of the compounds with ^68Ga^3+ was investigated. […] In the following, we investigated the lipophilicity of the MIUs [^68Ga]6 a–[^68Ga]13 a and their bioconjugates [^68Ga]6–[^68Ga]13 (Table 1 and Figure 2 C,D).
A solution of the respective multimodal imaging unit (MIU) 6a – 13a (5 nmol) or multimodal imaging agent 6 - 14 (5 nmol) in H2O (Tracepur quality, 1mM) was added to 90 - 120 MBq of [68Ga]GaCl in a solution obtained by fractioned elution of an IGG 68Ge/68Ga generator system […]
with HCl (0.1 M, 1.6 mL) and subsequent titration to pH 3.5 – 4.2 by addition of sodium acetate solution (1.25 M, 50 – 75 µL). All labeling experiments were performed by addition of 2 mg ascorbic acid to suppress radiolysis-induced product fragmentation. In the labeling experiments of the MIUs 6a – 13a, 1 - 4 mg TCEP x HCl were added and the pH was adjusted to 3.5 – 4.2 by addition of sodium acetate solution (1.25 M). After reaction for 10 min at 45°C, the reaction mixtures were analyzed by analytical radio-HPLC.
For 68Ga-6/6a – 68Ga-13/13a, the water/1-octanol partition coefficient (log ) was determined by […]
adding 5 µL of the respectively 68Ga-labeled compound (0.8 – 1.2 MBq) to a mixture of phosphate buffer (0.05 M, pH 7.4, 795 µL) and 1-octanol (800 µL). The mixtures were intensively shaken for 5 minutes on a vibrating plate. After subsequent centrifugation at 13 000 rpm for 5 min, 125 µL were taken from each phase and measured in a γ-counter. The logD values were calculated from three or four independent experiments, each performed in triplicate.
For 14, the water/1-octanol partition coefficient (logD) was determined by semipreparative HPLC.
For this purpose, 10 µL solution (c = 5 x 10-4 mol/L) of the substance were added to a mixture of 1 mL 1-octanol and 990 µL phosphate buffered solution (0.05 M, pH 7.4) and the mixture was vigorously shaken for 5 minutes. After centrifugation, the phases were separated and both phases were analyzed by semipreparative HPLC. The logD was determined by three separate measurements, each experiment performed in triplicate.
(§1) Competitive receptor binding assay
(§2) Stably GRPR-transfected Human Embryonic Kidney 293 cells (HEK-GRPR) were cultured at 37°C in Dulbecco’s Modified Eagle’s Medium (DMEM, high glucose, GlutaMax-I, 500 mL) […]
(§3) a humidified atmosphere containing 5 % CO2. The medium was exchanged every two or three days and cells were split at >75 % confluence. In vitro binding affinities were determined via competitive displacement experiments which were performed at least trice, each experiment performed in triplicate. A Millipore Multiscreen punch kit and Millipore 96 well filter plates (pore size 1.2 µm) were used. The plates were incubated with PBS/BSA (1%) solution (each well 200 µL) for one hour before use. HEK-GRPR cells were harvested and suspended carefully in Opti- […]

[3] = molecular target: T1, gastrin-releasing peptide receptor (GRPR) (Homo sapiens, UniProt P30550); test: Competitive displacement assay on stably GRPR-transfected HEK cells using [125I]-Tyr4-bombesin; format: binding; settings: [125I]-Tyr4-bombesin as competitor, 1 h, ambient temperature, read-out: IC50 (GRPR affinity)
T1 construct: host or cells: Human Embryonic Kidney 293 cells (HEK-GRPR)
T1 sequence (P30550 whole entry, species assumed): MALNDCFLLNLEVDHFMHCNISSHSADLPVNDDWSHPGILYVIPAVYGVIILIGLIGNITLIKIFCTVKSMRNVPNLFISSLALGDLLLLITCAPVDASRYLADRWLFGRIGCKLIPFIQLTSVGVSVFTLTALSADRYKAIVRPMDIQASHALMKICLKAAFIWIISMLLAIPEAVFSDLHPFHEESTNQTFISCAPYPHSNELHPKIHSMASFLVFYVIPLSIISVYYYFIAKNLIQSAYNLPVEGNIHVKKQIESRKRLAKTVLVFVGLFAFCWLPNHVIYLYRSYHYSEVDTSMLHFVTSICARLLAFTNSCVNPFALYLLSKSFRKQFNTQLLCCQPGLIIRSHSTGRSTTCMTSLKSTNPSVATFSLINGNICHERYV
Description: as §1, §2
as §3, with “Opti-MEM I (GlutaMAX I) medium. 50 µL of a cell suspension containing […] were seeded in each well. To this, a total volume of 50 µL was added to each well, containing 25 µL (0.012” for “Opti-”
The competitor was added in 11 increasing concentrations ranging from 0.25 – 500 nM for 6 – […]
binding of the radioligand. After one hour of incubation at ambient temperature, the solution was filtrated and the filters were washed with cold PBS (3 times). The filters were collected and […]

[4] = 1×10^−5 mol L^−1, excitation wavelength λex=400 nm

In the case of CSCC[C@H](NC(=O)[C@H](CC(C)C)NC(=O)[C@H](Cc1c[nH]cn1)NC(=O)CNC(=O)[C@@H](NC(=O)[C@H](C)NC(=O)[C@H](Cc1c[nH]c2ccccc12)NC(=O)[C@H](CCC(N)=O)NC(=O)CCOCCOCCOCCOCCNC(=O)CON=Cc1ccc(C(=O)NCCCN(CCCNC(=O)c2ccc(C=NOCC(=O)NCCOCCOCCOCCOCCC(=O)N[C@@H](CCC(N)=O)C(=O)N[C@@H](Cc3c[nH]c4ccccc34)C(=O)N[C@@H](C)C(=O)N[C@H](C(=O)NCC(=O)N[C@@H](Cc3c[nH]cn3)C(=O)N[C@@H](CC(C)C)C(=O)N[C@@H](CCSC)C(N)=O)C(C)C)cc2)CC(=O)N[C@H](CSC2CC(=O)N(CCN3C(=O)CC(SC[C@H](NC(=O)[C@H](CCCC[n+]4c(C)cc(/C=C/c5ccc(N(C)C)cc5)cc4C)NC(=O)CC[C@H](C(=O)O)N4CCN(CC(=O)O)CCN(CC(=O)O)CC4)C(N)=O)C3=O)C2=O)C(=O)NCCOCCOCC(N)=O)cc1)C(C)C)C(N)=O (stereo partly shown) [Compound 7], the “Log ϵ” value [1] is reported as 4.23 M ^−1 cm^−1, the Stokes shift [1] is reported as 140 nm and the λ max [1] is reported as 460 nm. For the same compound, the λem [1, 4] was 600 nm, the logD [2] was -2 ± 0.01 and the IC50 [3] was 16.5 ± 0.25 nM.
With CSCC[C@H](NC(=O)[C@H](CC(C)C)NC(=O)[C@H](Cc1c[nH]cn1)NC(=O)CNC(=O)[C@@H](NC(=O)[C@H](C)NC(=O)[C@H](Cc1c[nH]c2ccccc12)NC(=O)[C@H](CCC(N)=O)NC(=O)CCOCCOCCOCCOCCNC(=O)CON=Cc1ccc(C(=O)NCCCN(CCCNC(=O)c2ccc(C=NOCC(=O)NCCOCCOCCOCCOCCC(=O)N[C@@H](CCC(N)=O)C(=O)N[C@@H](Cc3c[nH]c4ccccc34)C(=O)N[C@@H](C)C(=O)N[C@H](C(=O)NCC(=O)N[C@@H](Cc3c[nH]cn3)C(=O)N[C@@H](CC(C)C)C(=O)N[C@@H](CCSC)C(N)=O)C(C)C)cc2)CC(=O)N[C@H](CSC2CC(=O)N(CCN3C(=O)CC(SC[C@H](NC(=O)[C@H](CCCC[n+]4c(C)cc(/C=C/C=C/c5ccc(N(C)C)cc5)cc4C)NC(=O)CC[C@H](C(=O)O)N4CCN(CC(=O)O)CCN(CC(=O)O)CC4)C(N)=O)C3=O)C2=O)C(=O)NCCOCCOCC(N)=O)cc1)C(C)C)C(N)=O (stereo partly shown) [Compound 8] the “Log ϵ” value [1] was 4.16 M ^−1 cm^−1, the Stokes shift [1] was 230 nm and the λ max [1] was 470 nm. For the same compound, the λem [1, 4] was 700 nm, the logD [2] was -1.73 ± 0.2 and the IC50 [3] was 15.5 ± 0.76 nM.
CSCC[C@H](NC(=O)[C@H](CC(C)C)NC(=O)[C@H](Cc1c[nH]cn1)NC(=O)CNC(=O)[C@@H](NC(=O)[C@H](C)NC(=O)[C@H](Cc1c[nH]c2ccccc12)NC(=O)[C@H](CCC(N)=O)NC(=O)CCOCCOCCOCCOCCNC(=O)CON=Cc1ccc(C(=O)NCCCN(CCCNC(=O)c2ccc(C=NOCC(=O)NCCOCCOCCOCCOCCC(=O)N[C@@H](CCC(N)=O)C(=O)N[C@@H](Cc3c[nH]c4ccccc34)C(=O)N[C@@H](C)C(=O)N[C@H](C(=O)NCC(=O)N[C@@H](Cc3c[nH]cn3)C(=O)N[C@@H](CC(C)C)C(=O)N[C@@H](CCSC)C(N)=O)C(C)C)cc2)CC(=O)N[C@H](CSC2CC(=O)N(CCN3C(=O)CC(SC[C@H](NC(=O)[C@H](CCCCNS(=O)(=O)c4cccc5c(N(C)C)cccc45)NC(=O)CC[C@H](C(=O)O)N4CCN(CC(=O)O)CCN(CC(=O)O)CC4)C(N)=O)C3=O)C2=O)C(=O)NCCOCCOCC(N)=O)cc1)C(C)C)C(N)=O (stereo partly shown) [Compound 9] showed a λem [1, 4] of 540 nm, a logD [2] of -1.59 ± 0.06 and an IC50 [3] of 26.2 ± 0.89 nM.
With CSCC[C@H](NC(=O)[C@H](CC(C)C)NC(=O)[C@H](Cc1c[nH]cn1)NC(=O)CNC(=O)[C@@H](NC(=O)[C@H](C)NC(=O)[C@H](Cc1c[nH]c2ccccc12)NC(=O)[C@H](CCC(N)=O)NC(=O)CCOCCOCCOCCOCCNC(=O)CON=Cc1ccc(C(=O)NCCCN(CCCNC(=O)c2ccc(C=NOCC(=O)NCCOCCOCCOCCOCCC(=O)N[C@@H](CCC(N)=O)C(=O)N[C@@H](Cc3c[nH]c4ccccc34)C(=O)N[C@@H](C)C(=O)N[C@H](C(=O)NCC(=O)N[C@@H](Cc3c[nH]cn3)C(=O)N[C@@H](CC(C)C)C(=O)N[C@@H](CCSC)C(N)=O)C(C)C)cc2)CC(=O)N[C@H](CSC2CC(=O)N(CCN3C(=O)CC(SC[C@H](NC(=O)[C@H](CCCCNc4ccc([N+](=O)[O-])c5nonc45)NC(=O)CC[C@H](C(=O)O)N4CCN(CC(=O)O)CCN(CC(=O)O)CC4)C(N)=O)C3=O)C2=O)C(=O)NCCOCCOCC(N)=O)cc1)C(C)C)C(N)=O (stereo partly shown) [Compound 10] the “Log ϵ” value [1] was 4.10 M ^−1 cm^−1, the λ max [1] was 490 nm and the λem [1, 4] was 545 nm. For the same compound, the logD [2] was -1.42 ± 0.24.
For CSCC[C@H](NC(=O)[C@H](CC(C)C)NC(=O)[C@H](Cc1c[nH]cn1)NC(=O)CNC(=O)[C@@H](NC(=O)[C@H](C)NC(=O)[C@H](Cc1c[nH]c2ccccc12)NC(=O)[C@H](CCC(N)=O)NC(=O)CCOCCOCCOCCOCCNC(=O)CON=Cc1ccc(C(=O)NCCCN(CCCNC(=O)c2ccc(C=NOCC(=O)NCCOCCOCCOCCOCCC(=O)N[C@@H](CCC(N)=O)C(=O)N[C@@H](Cc3c[nH]c4ccccc34)C(=O)N[C@@H](C)C(=O)N[C@H](C(=O)NCC(=O)N[C@@H](Cc3c[nH]cn3)C(=O)N[C@@H](CC(C)C)C(=O)N[C@@H](CCSC)C(N)=O)C(C)C)cc2)CC(=O)N[C@H](CSC2CC(=O)N(CCN3C(=O)CC(SC[C@H](NC(=O)[C@H](CCCCNC(=O)c4cc5cc6c7c(c5oc4=O)CCCN7CCC6)NC(=O)CC[C@H](C(=O)O)N4CCN(CC(=O)O)CCN(CC(=O)O)CC4)C(N)=O)C3=O)C2=O)C(=O)NCCOCCOCC(N)=O)cc1)C(C)C)C(N)=O (stereo partly shown) [Compound 12], the “Log ϵ” value [1] was 4.30 M ^−1 cm^−1, the Stokes shift [1] was 40 nm and the λ max [1] was 455 nm. It also gave a λem [1, 4] of 495 nm, a logD [2] of -1.72 ± 0.13 and an IC50 [3] of 20.9 ± 1.67 nM.
For CSCC[C@H](NC(=O)[C@H](CC(C)C)NC(=O)[C@H](Cc1c[nH]cn1)NC(=O)CNC(=O)[C@@H](NC(=O)[C@H](C)NC(=O)[C@H](Cc1c[nH]c2ccccc12)NC(=O)[C@H](CCC(N)=O)NC(=O)CCOCCOCCOCCOCCNC(=O)CON=Cc1ccc(C(=O)NCCCN(CCCNC(=O)c2ccc(C=NOCC(=O)NCCOCCOCCOCCOCCC(=O)N[C@@H](CCC(N)=O)C(=O)N[C@@H](Cc3c[nH]c4ccccc34)C(=O)N[C@@H](C)C(=O)N[C@H](C(=O)NCC(=O)N[C@@H](Cc3c[nH]cn3)C(=O)N[C@@H](CC(C)C)C(=O)N[C@@H](CCSC)C(N)=O)C(C)C)cc2)CC(=O)N[C@H](CSC2CC(=O)N(CCN3C(=O)CC(SC[C@H](NC(=O)[C@H](CCCCNC(=O)c4ccccc4C4=c5cc6c7c(c5Oc5c4cc4c8c5CCCN8CCC4)CCC[N+]=7CCC6)NC(=O)CC[C@H](C(=O)O)N4CCN(CC(=O)O)CCN(CC(=O)O)CC4)C(N)=O)C3=O)C2=O)C(=O)NCCOCCOCC(N)=O)cc1)C(C)C)C(N)=O (stereo partly shown) [Compound 13], the “Log ϵ” value [1] was 4.57 M ^−1 cm^−1, the Stokes shift [1] was 20 nm and the λ max [1] was 590 nm. For the same compound, the λem ([1]; 1×10^−5 mol L^−1, excitation wavelength λex=500 nm) was 610 nm, the logD [2] was -0.81 ± 0.05 and the IC50 [3] was 18 ± 0.86 nM.
